Data reported in paper PMC6390363, “Tau as a mediator of neurotoxicity associated to cerebral amyloid angiopathy” (Acta Neuropathologica Communications, 2019).

Target: the molecule itself
Assay: SDS-PAGE and Western blot of the stirred peptide; ADan peptide 0.5 mg/mL in PBS without calcium and magnesium, stirred at room temperature for up to 48 h, aliquots at 2, 8, 24 and 48 h; blots with anti-ADan 1699 and the conformational anti-oligomer antibody F11G3

B1: ADan peptide (Danish amyloid) (peptide)
peptide: EASNCFAIRHFENKFAVETLICFNLFLNSQEKHY
notes: the C-terminal part differs from wild-type BRI2; also called ADan amyloid peptide; ADan recombinant peptide; source: synthetic peptide (ThermoFisher Scientific, Fmoc-based solid phase peptide synthesis, purified by HPLC)
B1: binds.
